Results: US8624002B2, “Prostaglandin E2 binding proteins and uses thereof” (AbbVie, Inc., priority 2008, dated 2014)
Where a chain is given by its changes, count along the chain named. Like-named read-outs stand apart in the source and are kept apart here.

Key:
[1] = test system: PGE2 induced Ca++ influx in HEK293 Gα16 cells stably transfected with human EP4 receptor; assay: EP4 bioassay: PGE2 induced Ca++ flux (FLIPR); type: cell-based
[2] = ^3H-PGE2 competition ELISA (prostaglandin selectivity); type: binding
Procedure: Alternatively, prostaglandin selectivity was determined using a ^3H-PGE2 competition ELISA. Plates were coated with 50 μL/well of 5 μg/ml of goat anti-human IgG (Fc) (Thermo Scientific # 31170, Hudson, N.H.) or goat anti-mouse IgG (Fc) (Thermo Scientific # 31125, Hudson, N.H.) in PBS and incubated overnight at 4° C. The following day plates were flicked and blotted dry. Plates were blocked with 200 μL/well of Superblock (Thermo Scientific # 37515, Hudson, N.H.), 1 hour at room temperature. Plates were flicked and blotted dry. Monoclonal antibodies were diluted to 0.04 μg/ml in PBST (Abbott Bioresearch Center, Worcester, Mass.)/10% Superblock and 50 μL of each was added to each well (2 ng/well) of the pre-blocked ELISA plate and incubated for 1 hour at room temperature. Wells were washed 3 times with PBS/0.1% Tween-20. ^3H-PGE2 (Perkin Elmer # NET-428, Waltham, Mass.) was diluted in PBST/10% Superblock to 6 nM (2× stock). Each prostaglandin (Cayman Chemicals, Ann Arbor, Mich.) was prepared in PBST+10% Superblock at various concentrations ranging from 2000 μM (2× stock) to 0.00004 μM (2×). Equal volumes of the ^3H-PGE2 solution and of each prostaglandin dilution were mixed. Fifty microliters of this mixture was then added to each well of the plate and incubated for 1 hour at room temperature. Wells were washed manually 6 times with PBST/10% Superblock and 50 μL of scintillation fluid (Perkin Elmer # 6013621, Waltham, Mass.) added to each well. Plates were read using a TopCount reader (Perkin Elmer, Waltham, Mass.) with a 5 minute count delay. IC50 number was determined using GraphPad Prism 5 (GraphPad Software, La Jolla, Calif.). The cross reactivity index was then calculated by IC50 of PGE2/IC50 of other prostaglandin(s)

[3] = Capillary zone electrophoresis; type: physicochemical; conditions: running buffer pH 5.5; compared with Hu2B5.2, Hu2B5.4, Hu2B5.6, Hu2B5.8
[4] = PGE2 25 pm, read-out: IC50 (pM) @ PGE2 25 pm Cellular Potency in EP4 assay

B1: 2B5-8.0: recombinant anti-PGE2 antibody from solved 2B5 sequence; VH SEQ ID NO 42, VL SEQ ID NO 43 (antibody, V domains shown)
VH: QVQLQQSGPELVRPGSSVKISCKASGYTFTKYWLGWVKQRPGHGLEWIGDIYPGYDYTHYNEKFKDKATLTVDTSSSTAYMQLSSLTSEDSAIYYCARSDGSSTYWGQGTLVTVSA
VL: DVLMTQTPLSLPVSLGDQASISCTSSQNIVHSNGNTYLEWYLQRPGQSPKLLIYKVSNRFSGVPDRFSGSGSGTVFTLKISRVEAEDLGVYYCFQVSHVPYTFGGGTKLEIKR
- inhibition of PGE2 induced calcium influx in EP4 bioassay [1]: potently inhibited
- IC50 ([1]; read-out: PGE2 Neutralization Potency in Cellular EP4 assay (IC50)): 44 pM
- PG Selectivity in ^3H-PGE2 competition ELISA (CRI %) 2,3-dinor-6-keto-PGF1α ([2]; 2,3-dinor-6-keto-PGF1α): 0.019%
- PG Selectivity in ^3H-PGE2 competition ELISA (CRI %) 5(S)-HETE ([2]; 5(S)-HETE): <0.01%
- PG Selectivity in ^3H-PGE2 competition ELISA (CRI %) 6-keto PGF1α ([2]; 6-keto PGF1α): 0.64%
- PG Selectivity in ^3H-PGE2 competition ELISA (CRI %) 8-iso PGF2α ([2]; 8-iso PGF2α): 0.092%
- PG Selectivity in ^3H-PGE2 competition ELISA (CRI %) 13,14-dihydroxyl-15-keto PGE2 ([2]; 13,14-dihydroxyl-15-keto PGE2): 0.012%
- PG Selectivity in ^3H-PGE2 competition ELISA (CRI %) 15-keto PGE2 ([2]; 15-keto PGE2): 0.013%
- PG Selectivity in ^3H-PGE2 competition ELISA (CRI %) 15R-Pinane TXA2 ([2]; 15R-Pinane TXA2): 0.00043%
- PG Selectivity in ^3H-PGE2 competition ELISA (CRI %) 19R-hydroxy PGE2 ([2]; 19R-hydroxy PGE2): 0.09%
- PG Selectivity in ^3H-PGE2 competition ELISA (CRI %) Arachidonic acid ([2]; Arachidonic acid): <0.01%
- PG Selectivity in ^3H-PGE2 competition ELISA (CRI %) Carbaprostacyclin ([2]; Carbaprostacyclin): 0.18%
- PG Selectivity in ^3H-PGE2 competition ELISA (CRI %) Carbocyclic TXA2 ([2]; Carbocyclic TXA2): 0.0005%
- PG Selectivity in ^3H-PGE2 competition ELISA (CRI %) Iloprost ([2]; Iloprost): 0.01%
- PG Selectivity in ^3H-PGE2 competition ELISA (CRI %) LTE4 ([2]; LTE4): 0.012%
- PG Selectivity in ^3H-PGE2 competition ELISA (CRI %) PGA2 ([2]; PGA2): 0.04%
- PG Selectivity in ^3H-PGE2 competition ELISA (CRI %) PGB2 ([2]; PGB2): 0.00038%
- PG Selectivity in ^3H-PGE2 competition ELISA (CRI %) PGD2 ([2]; PGD2): <1 × 10^−4%
- PG Selectivity in ^3H-PGE2 competition ELISA (CRI %) PGE1 ([2]; PGE1): 3.6%
- PG Selectivity in ^3H-PGE2 competition ELISA (CRI %) PGE2 ([2]; PGE2): 100%
- PG Selectivity in ^3H-PGE2 competition ELISA (CRI %) PGF2α ([2]; PGF2α): 0.05%
- PG Selectivity in ^3H-PGE2 competition ELISA (CRI %) PGI2 ([2]; PGI2): 0.16%
- PG Selectivity in ^3H-PGE2 competition ELISA (CRI %) Pinane TXA2 ([2]; Pinane TXA2): 0.00033%
- PG Selectivity in ^3H-PGE2 competition ELISA (CRI %) TXB2 ([2]; TXB2): <0.01%

B2: Hu2B5.4: humanized 2B5-8.0; VH SEQ ID NO 66, VL SEQ ID NO 67 (antibody, V domains shown)
VH: EVQLVQSGAEVKKPGASVKVSCKASGYTFTKYWLGWVRQAPGQGLEWIGDIYPGYDYTHYNEKFKDRATLTVDTSTSTAYMELSSLRSDDTAVYYCARSDGSSTYWGQGTLVTVSS
VL: B1 VL with S14T, L15P, D17E, Q18P, R44K, K50Q, V75D, L88V, L109V
- IC50 [1, 4]: 40 pM

B3: Hu2B5.2: humanized 2B5-8.0; VH SEQ ID NO 62, VL SEQ ID NO 63 (antibody, V domains shown)
VH: B2 VH
VL: B1 VL with L3V, S14T, L15P, D17E, Q18P, R44K, K50Q, V75D, L88V, L109V
- IC50 [1, 4]: 55 pM

B4: Hu2B5.1: humanized 2B5-8.0; VH SEQ ID NO 60, VL SEQ ID NO 61 (antibody, V domains shown)
VH: B2 VH with S84R
VL: B1 VL with L3V, S14T, L15P, D17E, Q18P, R44K, K50Q, V75D, L88V, L109V
- IC50 [1, 4]: 55 pM
- migration in capillary zone electrophoresis [3]: migrated more basic

B5: Hu2B5.6: humanized 2B5-8.0; VH SEQ ID NO 70, VL SEQ ID NO 71 (antibody, V domains shown)
VH: B2 VH with I48M, A68V, V72T
VL: B1 VL with L3V, S14T, L15P, D17E, Q18P, R44K, K50Q, V75D, L88V, L109V
- IC50 [1, 4]: 52 pM

B6: Hu2B5.8: humanized 2B5-8.0; VH SEQ ID NO 74, VL SEQ ID NO 75 (antibody, V domains shown)
VH: B2 VH with I48M, A68V, V72T
VL: B1 VL with S14T, L15P, D17E, Q18P, R44K, K50Q, V75D, L88V, L109V
- IC50 [1, 4]: 78 pM

B7: Hu2B5.3: humanized 2B5-8.0; VH SEQ ID NO 64, VL SEQ ID NO 65 (antibody, V domains shown)
VH: B2 VH with S84R
VL: B1 VL with S14T, L15P, D17E, Q18P, R44K, K50Q, V75D, L88V, L109V
- IC50 [1, 4]: 47 pM
- migration in capillary zone electrophoresis [3]: migrated more basic
